Our source for the HI assay: minimal inhibitory concentration of RpSP-D trimers; failed to inhibit, HI assay: concentration of RpSP-D required to prevent hemagglutination and HI assay: minimal inhibitory concentration of RpSP-D multimers values is publication PMC3173486.

In assay [1] the target is HA of A/HongKong/156/97 (H5N1, clade 0) (influenza A virus A/HongKong/156/97 (H5N1)) (UniProt O56140).
Assay [2] concerns the target HA of A/HongKong/156/97 (H5N1, clade 0) (influenza A virus A/HongKong/156/97 (H5N1)), O56140.
Assay [3] concerns the target HA of A/VietNam/1194/04 (H5N1, clade 1) (influenza A virus A/VietNam/1194/04 (H5N1)).
Assay [4] concerns the target HA of A/Indonesia/5/05 (H5N1, clade 2.1) (influenza A virus A/Indonesia/5/05 (H5N1)).

Take “RpSP-D trimers (from UniProt Q9N1X4 21-378) (natural protein)”: in assay [1], the HI assay: minimal inhibitory concentration of RpSP-D trimers; failed to inhibit was > 4500 ng/100 µl.

B1: recombinant porcine SP-D, Q9N1X4 21-378 (natural protein)
chain: AEMKTYSQRAVANACALVMCSPMENGLPGRDGRDGREGPRGEKGDPGLPGAVGRAGMPGLAGPVGPKGDNGSTGEPGAKGDIGPCGPPGPPGIPGPAGKEGPSGQQGNIGPPGTPGPKGETGPKGEVGALGMQGSTGARGPAGLKGERGAPGERGAPGSAGAAGPAGATGPQGPSGARGPPGLKGDRGPPGERGAKGESGLPGITALRQQVETLQGQVQRLQKAFSQYKKVELFPNGRGVGEKIFKTGGFEKTFQDAQQVCTQAGGQMASPRSETENEALSQLVTAQNKAAFLSMTDIKTEGNFTYPTGEPLVYANWAPGEPNNNGGSSGAENCVEIFPNGKWNDKACGELRLVICEF
B1 showed an HI assay: concentration of RpSP-D required to prevent hemagglutination in assay [2] of 4500 ng/100 µl.

B2: RpSP-D multimers (natural protein)
chain: AEMKTYSQRAVANACALVMCSPMENGLPGRDGRDGREGPRGEKGDPGLPGAVGRAGMPGLAGPVGPKGDNGSTGEPGAKGDIGPCGPPGPPGIPGPAGKEGPSGQQGNIGPPGTPGPKGETGPKGEVGALGMQGSTGARGPAGLKGERGAPGERGAPGSAGAAGPAGATGPQGPSGARGPPGLKGDRGPPGERGAKGESGLPGITALRQQVETLQGQVQRLQKAFSQYKKVELFPNGRGVGEKIFKTGGFEKTFQDAQQVCTQAGGQMASPRSETENEALSQLVTAQNKAAFLSMTDIKTEGNFTYPTGEPLVYANWAPGEPNNNGGSSGAENCVEIFPNGKWNDKACGELRLVICEF
In the assay with HA of the H5N1 viruses, B2 showed an HI assay: minimal inhibitory concentration of RpSP-D multimers of 1400 ng/100 µl.

B3: RpSP-D trimers (natural protein)
chain: AEMKTYSQRAVANACALVMCSPMENGLPGRDGRDGREGPRGEKGDPGLPGAVGRAGMPGLAGPVGPKGDNGSTGEPGAKGDIGPCGPPGPPGIPGPAGKEGPSGQQGNIGPPGTPGPKGETGPKGEVGALGMQGSTGARGPAGLKGERGAPGERGAPGSAGAAGPAGATGPQGPSGARGPPGLKGDRGPPGERGAKGESGLPGITALRQQVETLQGQVQRLQKAFSQYKKVELFPNGRGVGEKIFKTGGFEKTFQDAQQVCTQAGGQMASPRSETENEALSQLVTAQNKAAFLSMTDIKTEGNFTYPTGEPLVYANWAPGEPNNNGGSSGAENCVEIFPNGKWNDKACGELRLVICEF
In the case of B3, the HI assay: minimal inhibitory concentration of RpSP-D trimers; failed to inhibit in assay [3] and in assay [4] was > 4500 ng/100 µl each time.
